# According to patent publication US20190262368A1:
# Assays:
# [1] = molecular target: human LOX1 on cells (human LOX1 transfected CHO TREX cells; endogenous on HAECs) (human) (UniProt P78380); assay: cell-based or functional assay
# [2] = molecular target: human LOX1 on cells (human LOX1 transfected CHO TREX cells; endogenous on HAECs) (human) (UniProt P78380); assay: row label missing; by the order of Table 5 taken as oxLDL/hLOX1 CHO competition (FMAT, DyLight 649 oxLDL as competitor), Mean
# [3] = molecular target: human LOX1 on cells (human LOX1 transfected CHO TREX cells; endogenous on HAECs) (human) (UniProt P78380); assay: row label missing; by the order of Table 5 taken as AGE BSA/hLOX1 CHO competition (FMAT, DyLight 649 AGE-BSA as competitor), Mean
# [4] = molecular target: human LOX1 SNP K167N variant on transfected CHO TREX cells (human) (UniProt P78380); assay: row label missing; by the order of Table 5 taken as oxLDL/K167N hLOX1 CHO competition (FMAT, DyLight 649 oxLDL as competitor), Mean
# [5] = molecular target: recombinant human LOX1 (R&D Systems) (human) (UniProt P78380); assay: row label missing; by the order of Table 5 taken as CRP/hLOX1 competition (plate assay, biotin CRP as competitor, immobilised recombinant hLOX1), Mean
substance,measurement,setting,value
"23C11, commercially available mouse anti-LOX-1 antibody","IC50 (Mean) of oxLDL internalisation in hLOX1 CHO cells; row label missing, taken by the order of Table 5",[1],2.85 nM
same,"IC50 (Mean) of oxLDL-dependent ROS generation in hLOX1 CHO cells; row label missing, taken by the order of Table 5",[1],10.1 nM
same,IC50,[2],2.2 nM
same,IC50,[3],1.15 nM
same,IC50,[4],1.31 nM
same,IC50,[5],11.1 nM
